The values below are quoted from earlier work in publication PMC4464172.

The data set has as its target CAII (Homo sapiens) (UniProt P00918). Nature of the data set: isothermal titration calorimetry. Background: In ITC the heat of successive injections is recorded.

Broadly, the Kd is the equilibrium constant for the complex coming apart. Turning to NBCe1-A (from UniProt Q9Y6R1), the Kd was 160 nM.
